Assay in all cases: Biacore
Background: In SPR one partner is held on a chip, and binding of the other changes the refractive index at the surface.

In test [1] the target is recombinant human FcγRIIb protein (human) (UniProt P31994).
In test [2] the target is human H131 FcγRIIa (human) (UniProt P12318).
Test [3] addresses FcγRIIaR (human) (UniProt P12318).
Test [4] addresses human FcγRI (human) (UniProt P12314).

Chain of FcγRIIaR (human) (P12318 34-217 H167R limits assumed): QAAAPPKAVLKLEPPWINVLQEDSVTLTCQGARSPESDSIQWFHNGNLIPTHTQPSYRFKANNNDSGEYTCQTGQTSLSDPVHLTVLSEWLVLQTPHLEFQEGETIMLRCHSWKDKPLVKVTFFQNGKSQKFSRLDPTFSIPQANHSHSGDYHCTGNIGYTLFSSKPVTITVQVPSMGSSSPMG
Chain of human H131 FcγRIIa (human) (P12318 other isoform, or with tags, fused parts or gaps limits assumed): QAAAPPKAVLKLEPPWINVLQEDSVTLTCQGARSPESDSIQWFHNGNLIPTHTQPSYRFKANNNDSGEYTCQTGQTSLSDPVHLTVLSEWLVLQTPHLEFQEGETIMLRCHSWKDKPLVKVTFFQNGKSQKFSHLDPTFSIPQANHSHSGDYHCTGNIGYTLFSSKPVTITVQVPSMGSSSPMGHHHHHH
Chain of human FcγRI (human) (P12314 16-288 limits assumed): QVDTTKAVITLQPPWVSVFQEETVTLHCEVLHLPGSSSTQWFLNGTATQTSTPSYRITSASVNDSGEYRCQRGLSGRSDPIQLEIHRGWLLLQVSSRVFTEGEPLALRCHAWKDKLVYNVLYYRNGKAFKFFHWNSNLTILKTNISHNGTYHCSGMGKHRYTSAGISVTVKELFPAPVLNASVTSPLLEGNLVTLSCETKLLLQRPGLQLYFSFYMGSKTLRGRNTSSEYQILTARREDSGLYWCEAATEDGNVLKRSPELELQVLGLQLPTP
Chain of recombinant human FcγRIIb protein (human) (P31994 46-217 limits assumed): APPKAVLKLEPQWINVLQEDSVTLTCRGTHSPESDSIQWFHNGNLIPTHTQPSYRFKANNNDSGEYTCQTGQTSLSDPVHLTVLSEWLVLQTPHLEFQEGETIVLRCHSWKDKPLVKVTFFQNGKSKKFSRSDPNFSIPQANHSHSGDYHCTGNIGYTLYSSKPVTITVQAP

In general, Kd refers to the concentration at which binding is half-saturated. Regarding G236D/S239D/S267E (antibody), the Fold in test [1] came out at 84.8; in test [2], 0.217; in test [3] it was 26.7; in test [4], 0.0685. Moreover, the equilibrium dissociation constant (Kd) in test [1] is 17.3 nM; in test [2], 2980 nM; in test [3], 32.2 nM; in test [4], 4.81 nM.
In the case of L234F (antibody), the Fold in test [1] is 0.409; in test [3], 0.228; in test [4] it was 0.0362. In addition, the Kd in test [1] came out at 3590 nM; in test [3] it was 3760 nM; in test [4], 9.11 nM.
Turning to A327N (antibody), the results for the Fold in test [1], in test [3] and in test [4] were 0.843, 0.609 and 0.0279, respectively. In addition, the dissociation constant Kd came to 1740 nM in test [1], 1410 nM in test [3] and 11.8 nM in test [4].
As to S239D/S267E/H268E (antibody), the equilibrium dissociation constant (Kd) in test [1] was determined as 6.91 nM; in test [2], 817 nM; in test [4], 0.326 nM.
Regarding G236T (antibody), the Fold in test [1] turned out to be 0.00225; in test [2], 0.486; in test [3], 0.35; in test [4], 0.0157. Further, the Kd in test [1] came to 652000 nM; in test [2] it was 1330 nM; in test [3], 2460 nM; in test [4] it was 21 nM.
For G237N/S267E (antibody), the Fold in test [1] was determined as 40.5; in test [3], 61.5; in test [4], 0.101. For the same substance, the equilibrium dissociation constant (Kd) in test [1] was 36.2 nM; in test [3], 14 nM; in test [4] it was 3.25 nM.
In the case of L235D/S267E/L328F (antibody), the Fold in test [1] is 80.4; in test [2], 0.275; in test [3], 133; in test [4], 0.00057. Further, the Kd in test [1] turned out to be 18.2 nM; in test [2], 2350 nM; in test [3] it was 6.45 nM; in test [4] it was 573 nM.
Consider L235Y/S267E/L328F (antibody), for which the Fold turned out to be 187 in test [1], 0.758 in test [2], 171 in test [3] and 0.00436 in test [4]. The dissociation constant (Kd) in test [1] came out at 7.83 nM; in test [2], 853 nM; in test [3], 5.02 nM; in test [4], 75.5 nM.
G236D/S267E/L328F (antibody): the Fold in test [1] amounted to 149; in test [2], 0.0301; in test [3] it was 59.9; in test [4] it was 0.0736. For the same substance, the Kd is 9.87 nM in test [1], 21500 nM in test [2], 14.3 nM in test [3] and 4.48 nM in test [4].
Regarding G236N/S267E (antibody), the results for the Fold in test [1], in test [3] and in test [4] were 19.8, 3.27 and 0.0355, respectively. The equilibrium dissociation constant (Kd) was found to be 74.2 nM in test [1], 263 nM in test [3] and 9.27 nM in test [4].
On to L234E/S267E (antibody), for which the Fold stood at 15.1 in test [1], 10.7 in test [3] and 0.131 in test [4]. The Kd in test [1] is 97 nM; in test [3], 80.4 nM; in test [4] it was 2.51 nM.
For the substance L235D/S267E (antibody), the Fold stood at 16.7 in test [1], 13 in test [3] and 0.00039 in test [4]. Further, the Kd in test [1] stood at 88.1 nM; in test [3] it was 66.1 nM; in test [4] it was 854 nM.
For the substance L235F/S267E (antibody), the Fold amounted to 28.4 in test [1], 0.402 in test [2], 32.5 in test [3] and 0.0176 in test [4]. Moreover, the Kd was found to be 51.7 nM in test [1], 1610 nM in test [2], 26.4 nM in test [3] and 18.7 nM in test [4].
On to IgG1/2ELLGG_S267E/L328F (antibody), for which the Fold in test [1] amounted to 221; in test [2], 0.993; in test [3], 269; in test [4], 2.35. In addition, the dissociation constant (Kd) in test [1] amounted to 6.63 nM; in test [2], 651 nM; in test [3], 3.19 nM; in test [4] it was 0.14 nM.
As for S267E/L328Y (antibody), the Fold in test [1] was found to be 43.1; in test [2], 1.34; in test [3] it was 122; in test [4], 0.224. In addition, the Kd in test [1] came out at 34.1 nM; in test [2] it was 481 nM; in test [3] it was 7.06 nM; in test [4] it was 1.47 nM.
Regarding L235P (antibody), in test [1], the Fold was 0.00585 and the Kd was found to be 251000 nM. Moreover, in test [3], the Fold was determined as 0.122 and the equilibrium dissociation constant (Kd) is 7010 nM.
The corresponding values for L235R (antibody) are 5.58, 263 nM, 1.02 and 838 nM.
In the same order, the values of L234W/G236D/S239E/S267E (antibody) are 11.4, 129 nM, 5.69 and 151 nM.
In the case of L235Y/S267E (antibody), the Fold is 37.2 in test [1], 0.941 in test [2], 37.5 in test [3] and 0.00347 in test [4]. For the same substance, the dissociation constant Kd was 39.4 nM in test [1], 687 nM in test [2], 22.9 nM in test [3] and 95 nM in test [4].
Take S239Q (antibody): in test [1], the Fold is 0.729 and the Kd was determined as 2010 nM. In test [3], this substance registered a Fold of 0.853 and a dissociation constant (Kd) of 1010 nM.
G236F (antibody): in test [1], the Fold came out at 0.0147 and the Kd was 100000 nM. Besides, in test [3], the Fold came to 0.00859 and the Kd turned out to be 100000 nM.
Turning to L234Q (antibody), in test [1], the Fold amounted to 0.147 and the Kd was 10000 nM. In test [3], the Fold amounted to 0.0372 and the Kd turned out to be 23100 nM.
As to S298D (antibody), the Fold was determined as 0.797 in test [1] and 1.45 in test [3]. The values for the dissociation constant (Kd) in test [1] and in test [3] were 1840 nM and 592 nM, respectively.
In the case of G237A (antibody), the Fold in test [1] is 0.191; in test [3], 0.704; in test [4], 0.0108. The Kd in test [1] was 7680 nM; in test [3] it was 1220 nM; in test [4], 30.5 nM.
In the case of L234S (antibody), in test [1], the Fold came out at 0.192 and the Kd was found to be 7640 nM. In test [3], this substance registered a Fold of 0.693 and a Kd of 1240 nM.
Take L235H (antibody): in test [1], the Fold turned out to be 0.734 and the Kd came to 2000 nM. In test [3], this substance registered a Fold of 0.756 and an equilibrium dissociation constant (Kd) of 1140 nM.
Take G237K (antibody): in test [1], the Fold was found to be 0.0147 and the dissociation constant (Kd) came out at 100000 nM. In test [3], this substance returned a Fold of 0.00859 and a Kd of 100000 nM.
In the case of D265E (antibody), in test [1], the Fold was determined as 0.417 and the Kd stood at 3520 nM. Also, in test [3], the Fold was 0.307 and the Kd came to 2790 nM.
Regarding A327Q (antibody), in test [1], the Fold was determined as 0.011 and the Kd amounted to 134000 nM. In test [3], this substance returned a Fold of 0.634 and a dissociation constant Kd of 1350 nM.
In the case of L235Y/G236D/S267E (antibody), in test [1], the Fold turned out to be 25 and the Kd was found to be 58.7 nM. In test [3], this substance showed a Fold of 9.67 and a Kd of 88.8 nM.
In the same order, the values of P329E (antibody) are 0.147, 10000 nM, 0.0859 and 10000 nM.
The corresponding values for G236M (antibody) are 0.147, 10000 nM, 0.0859 and 10000 nM.
Consider L234I (antibody), for which, in test [1], the Fold was 0.108 and the Kd was 13600 nM. In test [3], this substance displayed a Fold of 0.0554 and a Kd of 15500 nM.
In the same order, the values of L234K (antibody) are 0.0147, 100000 nM, 0.00859 and 100000 nM.
For S267G (antibody), the Kd in test [1] turned out to be 1450 nM; in test [3], 517 nM; in test [4], 0.626 nM.
L234W/S239E/S267E (antibody): in test [1], the Fold was found to be 42.3 and the dissociation constant Kd stood at 34.7 nM. Further, in test [3], the Fold was determined as 98.5 and the Kd came out at 8.72 nM.
G237D/S267E (antibody): the figures for the Fold in test [1], in test [3] and in test [4] were 17, 13.6 and 0.0874, respectively. Also, the dissociation constant (Kd) in test [1] came to 86.1 nM; in test [3], 63.1 nM; in test [4], 3.77 nM.
For the substance G237P (antibody), in test [1], the Fold amounted to 0.0147 and the dissociation constant Kd was 100000 nM. Further, in test [3], the Fold was found to be 0.00859 and the dissociation constant Kd was 100000 nM.
Take G237Y (antibody): in test [1], the Fold is 0.33 and the equilibrium dissociation constant (Kd) is 4450 nM. Moreover, in test [3], the Fold was 0.902 and the dissociation constant Kd came out at 952 nM.
In the case of G237Q (antibody), in test [1], the Fold came to 0.147 and the Kd was found to be 10000 nM. In test [3], this substance came in with a Fold of 0.0859 and a Kd of 10000 nM.
With S239N (antibody), the Fold is 1.45 in test [1] and 0.867 in test [3]. For the same substance, the dissociation constant (Kd) worked out at 1010 nM in test [1] and 990 nM in test [3].
As to L234P (antibody), in test [1], the Fold amounted to 0.0644 and the equilibrium dissociation constant (Kd) was determined as 22800 nM. In test [3], this substance yielded a Fold of 0.0141 and a Kd of 60700 nM.
The corresponding values for G237S (antibody) are 0.147, 10000 nM, 0.081 and 10600 nM.
The corresponding values for L234D/G236N/S267E (antibody) are 5.11, 287 nM, 0.728 and 1180 nM.

(Values after patent US20140212436A1.)
